B1: MH5.3 (antibody, IgG1, V domains shown)
VH: QVQLVQSGAEVKKPGASVKVSCKASGYTFTDHYMNWVRQAPGQGLEWMGRIYPGTGNTYYAQKFQGRVTMTRDTSTSTVYMELSSLRSEDTAVYYCARGVWYYDYWGQGTLVTVSS
VL: DIQMTQSPSSLSASVGDRVTITCRASQGIRTNLAWFQQKPGKAPKSLIYAASSLQSGVPSRFSGSGSGTDFTLTISSLQPEDFATYYCQQYANYPRTFGGGTKVEIK
notes: IgG1
B2: MH5.8 (antibody, IgG1, V domains shown)
VH: QVQLVQSGAEVKKPGASVKVSCKASGYTFTDHYMNWVRQAPGQGLEWMGRIYPGAGNTYYAQKFQGRVTMTRDTSTSTVYMELSSLRSEDTAVYYCARGVWYFDSWGQGTLVTVSS
VL: DIQMTQSPSSLSASVGDRVTITCRASQGIRTNLAWFQQKPGKAPKSLIYAASSLQSGVPSRFSGSGSGTDFTLTISSLQPEDFATYYCQQYANYPRTFGGGTKVEIK
notes: IgG1
B3: MH5.5 (antibody, IgG1, V domains shown)
VH: QVQLVQSGAEVKKPGASVKVSCKASGYTFTDHYMNWVRQAPGQGLEWMGRIYPGTGNTYYAQKFQGRVTMTRDTSTSTVYMELSSLRSEDTAVYYCARGVWYFDTWGQGTLVTVSS
VL: DIQMTQSPSSLSASVGDRVTITCRASQGIRTNLAWFQQKPGKAPKSLIYAASSLQSGVPSRFSGSGSGTDFTLTISSLQPEDFATYYCQQYANYPRTFGGGTKVEIK
notes: IgG1
B4: MH5.21 (antibody, IgG1, V domains shown)
VH: QVQLVQSGAEVKKPGASVKVSCKASGYTFTDFYMNWVRQAPGQGLEWMGRIYPGAGNTYYAQKFQGRVTMTRDTSTSTVYMELSSLRSEDTAVYYCARGVWYFDEWGQGTLVTVSS
VL: DIQMTQSPSSLSASVGDRVTITCRASQGIRTNLAWFQQKPGKAPKSLIYAASSLQSGVPSRFSGSGSGTDFTLTISSLQPEDFATYYCQQYANYPRTFGGGTKVEIK
notes: IgG1
B5: MH5.20 (antibody, IgG1, V domains shown)
VH: QVQLVQSGAEVKKPGASVKVSCKASGYTFTDFYMNWVRQAPGQGLEWMGRIYPGAGNTYYAQKFQGRVTMTRDTSTSTVYMELSSLRSEDTAVYYCARGVWYFDTWGQGTLVTVSS
VL: DIQMTQSPSSLSASVGDRVTITCRASQGIRTNLAWFQQKPGKAPKSLIYAASSLQSGVPSRFSGSGSGTDFTLTISSLQPEDFATYYCQQYANYPRTFGGGTKVEIK
notes: IgG1
B6: MH5.30 (antibody, IgG1, V domains shown)
VH: QVQLVQSGAEVKKPGASVKVSCKASGYTFTNYYMNWVRQAPGQGLEWMGRIYPGAGNTYYAQKFQGRVTMTRDTSTSTVYMELSSLRSEDTAVYYCARGVWYFDSWGQGTLVTVSS
VL: DIQMTQSPSSLSASVGDRVTITCRASQGIRTNLAWFQQKPGKAPKSLIYAASSLQSGVPSRFSGSGSGTDFTLTISSLQPEDFATYYCQQYANYPRTFGGGTKVEIK
notes: IgG1
B7: MH5.11 (antibody, IgG1, V domains shown)
VH: QVQLVQSGAEVKKPGASVKVSCKASGYTFTDHYMNWVRQAPGQGLEWMGRIYPASGNTYYAQKFQGRVTMTRDTSTSTVYMELSSLRSEDTAVYYCARGVWYYDYWGQGTLVTVSS
VL: DIQMTQSPSSLSASVGDRVTITCRASQGIRTNLAWFQQKPGKAPKSLIYAASSLQSGVPSRFSGSGSGTDFTLTISSLQPEDFATYYCQQYANYPRTFGGGTKVEIK
notes: IgG1
B8: MH5.14 (antibody, IgG1, V domains shown)
VH: QVQLVQSGAEVKKPGASVKVSCKASGYTFTDHYMNWVRQAPGQGLEWMGRIYPASGNTYYAQKFQGRVTMTRDTSTSTVYMELSSLRSEDTAVYYCARGVWYFDEWGQGTLVTVSS
VL: DIQMTQSPSSLSASVGDRVTITCRASQGIRTNLAWFQQKPGKAPKSLIYAASSLQSGVPSRFSGSGSGTDFTLTISSLQPEDFATYYCQQYANYPRTFGGGTKVEIK
notes: IgG1
B9: MH5.29 (antibody, IgG1, V domains shown)
VH: QVQLVQSGAEVKKPGASVKVSCKASGYTFTNYYMNWVRQAPGQGLEWMGRIYPGAGNTYYAQKFQGRVTMTRDTSTSTVYMELSSLRSEDTAVYYCARGVWYYDYWGQGTLVTVSS
VL: DIQMTQSPSSLSASVGDRVTITCRASQGIRTNLAWFQQKPGKAPKSLIYAASSLQSGVPSRFSGSGSGTDFTLTISSLQPEDFATYYCQQYANYPRTFGGGTKVEIK
notes: IgG1
B10: MH5.27 (antibody, IgG1, V domains shown)
VH: QVQLVQSGAEVKKPGASVKVSCKASGYTFTNYYMNWVRQAPGQGLEWMGRIYPGTGNTYYAQKFQGRVTMTRDTSTSTVYMELSSLRSEDTAVYYCARGVWYFDTWGQGTLVTVSS
VL: DIQMTQSPSSLSASVGDRVTITCRASQGIRTNLAWFQQKPGKAPKSLIYAASSLQSGVPSRFSGSGSGTDFTLTISSLQPEDFATYYCQQYANYPRTFGGGTKVEIK
notes: IgG1
B11: MH5.7 (antibody, IgG1, V domains shown)
VH: QVQLVQSGAEVKKPGASVKVSCKASGYTFTDHYMNWVRQAPGQGLEWMGRIYPGAGNTYYAQKFQGRVTMTRDTSTSTVYMELSSLRSEDTAVYYCARGVWYYDYWGQGTLVTVSS
VL: DIQMTQSPSSLSASVGDRVTITCRASQGIRTNLAWFQQKPGKAPKSLIYAASSLQSGVPSRFSGSGSGTDFTLTISSLQPEDFATYYCQQYANYPRTFGGGTKVEIK
notes: IgG1
B12: MH5.13 (antibody, IgG1, V domains shown)
VH: QVQLVQSGAEVKKPGASVKVSCKASGYTFTDHYMNWVRQAPGQGLEWMGRIYPASGNTYYAQKFQGRVTMTRDTSTSTVYMELSSLRSEDTAVYYCARGVWYFDTWGQGTLVTVSS
VL: DIQMTQSPSSLSASVGDRVTITCRASQGIRTNLAWFQQKPGKAPKSLIYAASSLQSGVPSRFSGSGSGTDFTLTISSLQPEDFATYYCQQYANYPRTFGGGTKVEIK
notes: IgG1
B13: MH5.16 (antibody, IgG1, V domains shown)
VH: QVQLVQSGAEVKKPGASVKVSCKASGYTFTDFYMNWVRQAPGQGLEWMGRIYPGTGNTYYAQKFQGRVTMTRDTSTSTVYMELSSLRSEDTAVYYCARGVWYFDTWGQGTLVTVSS
VL: DIQMTQSPSSLSASVGDRVTITCRASQGIRTNLAWFQQKPGKAPKSLIYAASSLQSGVPSRFSGSGSGTDFTLTISSLQPEDFATYYCQQYANYPRTFGGGTKVEIK
notes: IgG1
B14: MH5.19 (antibody, IgG1, V domains shown)
VH: QVQLVQSGAEVKKPGASVKVSCKASGYTFTDFYMNWVRQAPGQGLEWMGRIYPGAGNTYYAQKFQGRVTMTRDTSTSTVYMELSSLRSEDTAVYYCARGVWYFDSWGQGTLVTVSS
VL: DIQMTQSPSSLSASVGDRVTITCRASQGIRTNLAWFQQKPGKAPKSLIYAASSLQSGVPSRFSGSGSGTDFTLTISSLQPEDFATYYCQQYANYPRTFGGGTKVEIK
notes: IgG1
B15: MH5.28 (antibody, IgG1, V domains shown)
VH: QVQLVQSGAEVKKPGASVKVSCKASGYTFTNYYMNWVRQAPGQGLEWMGRIYPGTGNTYYAQKFQGRVTMTRDTSTSTVYMELSSLRSEDTAVYYCARGVWYFDEWGQGTLVTVSS
VL: DIQMTQSPSSLSASVGDRVTITCRASQGIRTNLAWFQQKPGKAPKSLIYAASSLQSGVPSRFSGSGSGTDFTLTISSLQPEDFATYYCQQYANYPRTFGGGTKVEIK
notes: IgG1
B16: MH5.25 (antibody, IgG1, V domains shown)
VH: QVQLVQSGAEVKKPGASVKVSCKASGYTFTDFYMNWVRQAPGQGLEWMGRIYPASGNTYYAQKFQGRVTMTRDTSTSTVYMELSSLRSEDTAVYYCARGVWYFDEWGQGTLVTVSS
VL: DIQMTQSPSSLSASVGDRVTITCRASQGIRTNLAWFQQKPGKAPKSLIYAASSLQSGVPSRFSGSGSGTDFTLTISSLQPEDFATYYCQQYANYPRTFGGGTKVEIK
notes: IgG1
B17: MH5.18 (antibody, IgG1, V domains shown)
VH: QVQLVQSGAEVKKPGASVKVSCKASGYTFTDFYMNWVRQAPGQGLEWMGRIYPGAGNTYYAQKFQGRVTMTRDTSTSTVYMELSSLRSEDTAVYYCARGVWYYDYWGQGTLVTVSS
VL: DIQMTQSPSSLSASVGDRVTITCRASQGIRTNLAWFQQKPGKAPKSLIYAASSLQSGVPSRFSGSGSGTDFTLTISSLQPEDFATYYCQQYANYPRTFGGGTKVEIK
notes: IgG1
B18: MH5.12 (antibody, IgG1, V domains shown)
VH: QVQLVQSGAEVKKPGASVKVSCKASGYTFTDHYMNWVRQAPGQGLEWMGRIYPASGNTYYAQKFQGRVTMTRDTSTSTVYMELSSLRSEDTAVYYCARGVWYFDSWGQGTLVTVSS
VL: DIQMTQSPSSLSASVGDRVTITCRASQGIRTNLAWFQQKPGKAPKSLIYAASSLQSGVPSRFSGSGSGTDFTLTISSLQPEDFATYYCQQYANYPRTFGGGTKVEIK
notes: IgG1
B19: MH5.26 (antibody, IgG1, V domains shown)
VH: QVQLVQSGAEVKKPGASVKVSCKASGYTFTNYYMNWVRQAPGQGLEWMGRIYPGTGNTYYAQKFQGRVTMTRDTSTSTVYMELSSLRSEDTAVYYCARGVWYFDSWGQGTLVTVSS
VL: DIQMTQSPSSLSASVGDRVTITCRASQGIRTNLAWFQQKPGKAPKSLIYAASSLQSGVPSRFSGSGSGTDFTLTISSLQPEDFATYYCQQYANYPRTFGGGTKVEIK
notes: IgG1
B20: MH5.17 (antibody, IgG1, V domains shown)
VH: QVQLVQSGAEVKKPGASVKVSCKASGYTFTDFYMNWVRQAPGQGLEWMGRIYPGTGNTYYAQKFQGRVTMTRDTSTSTVYMELSSLRSEDTAVYYCARGVWYFDEWGQGTLVTVSS
VL: DIQMTQSPSSLSASVGDRVTITCRASQGIRTNLAWFQQKPGKAPKSLIYAASSLQSGVPSRFSGSGSGTDFTLTISSLQPEDFATYYCQQYANYPRTFGGGTKVEIK
notes: IgG1
B21: MH5.9 (antibody, IgG1, V domains shown)
VH: QVQLVQSGAEVKKPGASVKVSCKASGYTFTDHYMNWVRQAPGQGLEWMGRIYPGAGNTYYAQKFQGRVTMTRDTSTSTVYMELSSLRSEDTAVYYCARGVWYFDTWGQGTLVTVSS
VL: DIQMTQSPSSLSASVGDRVTITCRASQGIRTNLAWFQQKPGKAPKSLIYAASSLQSGVPSRFSGSGSGTDFTLTISSLQPEDFATYYCQQYANYPRTFGGGTKVEIK
notes: IgG1

These binders were tested against T1, human C-KIT-Fc (human, UniProt P10721 26-524) (assay: direct ELISA;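 note: Plate-coated C-KIT-Fc (1 µg/ml) probed with antibodies for 1 hr, bound IgG detected via anti-human kappa-HRP and TMB, absorbance measured at 450 nm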).
T1 construct: also called biotinylated human C-KIT-Fc; not shown: Fc part not described

Binding result, binds:
B1, B2, B3, B4, B5, B6, B7, B8, B9, B10, B11, B12, B13, B14, B15, B16, B17, B18, B19, B20, B21

From patent US20200283521A1 (GRANULAR THERAPEUTICS, published 2020)
